Source: patent US20160228506A1, “Compositions and Formulations for Prevention and Reduction of Tumorigenesis, Cancer Cell Proliferation and Invasion, and Methods of Production and Use Thereof in Cancer Treatment” (PRONUTRIA, INC., priority 2013, published 2016)
Positions count from the first letter of the chain named. In names and notes the source's numbering stands.

How the values were obtained:
Pancreatin = format: in vitro ADME, Porcine
Description: Control samples were protease-free.
Analyses were performed using an Agilent 1100 series system.

[1] = Intact half-life during simulated gastric fluid (SGF) digestion
[2] = test system: SEQID-00338 kinase activity (AMP + ATP→ADP); test: Kinase activity of SEQID-00338 (ADP-Glo Max Assay); format: biochemical; settings: 7 μg/mL, 30 minute reaction at 30° C.
Description: The ADP-Glo™ Max Assay was obtained from Promega (Catalog number V7001, Madison, Wis.). Adenosine Monophosphate was obtained from Sigma-Aldrich (Catalog number A1752, St. Louis, Mo.). 5× Kinase Buffer was prepared w/ 1.211 g Tris Base (Catalog number BP152-2, Fisher Bioreagents, Pittsburgh, Pa.), 692 μL 12% hydrochloric acid solution (Catalog number BDH3026-500MLP, VWR, Radnor, Pa.), 10.0 mL 500 mM magnesium chloride (Catalog number BP214-500, Fisher Bioreagents, Pittsburgh, Pa.) and the volume brought to 50 mL with MilliQ water and filtered through 0.22 μm PES filter (Catalog number SCGP00525, Millipore, Billerica, Mass.) into a sterile 50 mL tube.
Twelve his-tag purified mutant proteins and the wild-type protein at 35 μg/mL in Tris buffer were serially diluted to 7.0 and 1.4 μg/mL. Prepared kinase reaction mix at 0.5 mM AMP/0.5 mM ATP to test for activity and at 0 mM AMP/0 mM ATP to assay background activity by diluting 5× Kinase Buffer with appropriate volumes of 10 mM AMP and 10 mM ATP in MilliQ water. Duplicate reactions were prepared by mixing 9 μL of the reaction mixture with 6 μL of diluted SEQID-00338, mixing by pipetting up and down and dispensing 5 μL into a 384-well white OptiPlate (PerkinElmer, Waltham, Mass.). An ADP standard curve was prepared by serially diluting 4 mM ADP in MilliQ water and adding kinase buffer to 1× for a standard at 0.0005, 0.001, 0.005, 0.01, 0.05, 0.1, 0.5, 1, 2, 3, and 4 mM ADP. The plate was covered with a foil plate seal and incubated at 30° C. for 30 min. Following the kinase reaction, 5 μL of ADP-Glo™ Reagent was added to each well. The plate was sealed with a foil plate seal and placed on a horizontal plate shaker at 450 rpm for 2 minutes at room temperature. The plate was removed from the plate shaker and incubated at room temperature for 40 minutes. The plate was then centrifuged for 15 seconds at 1109×rcf and 10 μL of ADP-Glo™ Max Detection Reagent was added. The plate was sealed with a foil plate seal and shaken on a horizontal plate shaker at 450 rpm at room temperature for 2 minutes. The plate was then removed from the plate shaker and incubated at room temperature for 60 minutes. The plate was centrifuged for 15 seconds at 1109×rcf and the luminescence read on an EnspireAlpha plate reader (PerkinElmer, Waltham, Mass.).
The ADP standard curve was used to determine the concentration of ADP in sample wells in the presence or absence of substrate. Concentrations were determined by performing a non-linear 4 parameter logistic on the X=log(X) transformed ADP standard luminescence values. […] Where the background concentration of ADP in the absence of substrate was calculable the average of those values were subtracted from the calculated ADP concentration in the substrate incubated wells. Activity knock out was calculated by percentage activity relative to purified wild-type protein at the same concentration.

[3] = native and modified forms of SEQID-00363, gel electrophoresis

B1: SEQID-00298 (BS): nutritive polypeptide naturally produced in Cow (protein, listed as Bos taurus)
chain: MGLSDGEWQLVLNAWGKVEADVAGHGQEVLIRLFTGHPETLEKFDKFKHLKTEAEMKASEDLKKHGNTVLTALGGILKKKGHHEAEVKHLAESHANKHKIPVKYLEFISDAIIHVLHAKHPSDFGADAQAAMSKALELFRNDMAAQYKVLGFHG
In the case of B1, the “Free Leu (μM) at 120 min time point of Pancreatin digest” value (“Free Leu (μM) at 120 min time point” for short) (Pancreatin) is reported as 1030.8 µM and the “SGF Half-life (t½)” value ([1]; SGF pH 1.5, pepsin:polypeptide 1:20 w/w, 37° C., intact protein) is reported as 0.1 min.

B2: Reduced and alkylated SEQID-00363: SEQID-00363 with disulfide bonds reduced and alkylated (protein)
chain: ATLDSWLSNEATVARTAILNNIGADGAWVSGADSGIVVASPSTDNPDYFYTWTRDSGLVLKTLVDLFRNGDTSLLSTIENYISAQAIVQGISNPSGDLSSGAGLGEPKFNVDETAYTGSWGRPQRDGPALRATAMIGFGQWLLDNGYTSTATDIVWPLVRNDLSYVAQYWNQTGYDLWEEVNGSSFFTIAVQHRALVEGSAFATAVGSSCSWCDSQAPEILCYLQSFWTGSFILANFDSSRSGKDANTLLGSIHTFDPEAACDDSTFQPCSPRALANHKEVVDSFRSIYTLNDGLSDSEAVAVGRYPEDTYYNGNPWFLCTLAAAEQLYDALYQWDKQGSLEVTDVSLDFFKALYSDAATGTYSSSSSTYSSIVDAVKTFADGFVSIVETHAASNGSMSEQYDKSDGEQLSARDLTWSYAALLTANNRRNSVVPASWGETSASSVPGTCAATSAIGTYSSVTVTSWPSIVATGGTTTTATPTGSGSVTSTSKTTATASKTSTSTSSTSCTTPTAVAVTFDLTATTTYGENIYLVGSISQLGDWETSDGIALSADKYTSSDPLWYVTVTLPAGESFEYKFIRIESDDSVEWESDPNREYTVPQACGTSTATVTDTWR
modifications: disulfides reduced and alkylated; Aspergillus niger
With B2 the “Free Leu (μM) at 120 min time point” value (Pancreatin) was 598.1 µM and the “SGF Half-life (t½)” value [1, 3] was 20.4 min.

B3: Heat-denatured SEQID-00363: SEQID-00363 30 g/L in 10% PBS rapidly heated to 95° C. (protein)
chain: B2 chain
modifications: heat-denatured; Aspergillus niger
With B3 the “Free Leu (μM) at 120 min time point” value (Pancreatin) was 763.5 µM and the “SGF Half-life (t½)” value [1, 3] was 20.4 min.

B4: R134Y: single amino acid mutant of SEQID-00338, substrate binding position 134 (protein, listed as Saccharomyces cerevisiae)
chain: MSSSESIRMVLIGPPGAGKGTQAPNLQERFHAAHLATGDMLRSQIAKGTQLGLEAKKIMDQGGLVSDDIMVNMIKDELTNNPACKNGFILDGFPRTIPQAEKLDQMLKEQGTPLEKAIELKVDDELLVARITGYLIHPASGRSYHKIFNPPKEDMKDDVTGEALVQRSDDNADALKKRLAAYHAQTEPIVDFYKKTGIWAGVDASQPPATVWADILNKLGKD
modifications: source: /note="strain ATCC 204508 / S288c"
With B4 the “AVG percent activity relative to purified wild-type protein” value [2] was 0.2%.

B5: R42T: single amino acid mutant of SEQID-00338, position 42 (protein, listed as Saccharomyces cerevisiae)
chain: B4 chain with R42T, Y134R
modifications: source: /note="strain ATCC 204508 / S288c"
For B5, the “AVG percent activity relative to purified wild-type protein” value [2] was 1.9%.

B6: R42G: single amino acid mutant of SEQID-00338, position 42 (protein, listed as Saccharomyces cerevisiae)
chain: B4 chain with R42G, Y134R
modifications: source: /note="strain ATCC 204508 / S288c"
For B6, the “AVG percent activity relative to purified wild-type protein” value [2] was 1.2%.

B7: R42C: single amino acid mutant of SEQID-00338, position 42 (protein, listed as Saccharomyces cerevisiae)
chain: B4 chain with R42C, Y134R
modifications: source: /note="strain ATCC 204508 / S288c"
In the case of B7, the “AVG percent activity relative to purified wild-type protein” value [2] is reported as 1.8%.

B8: R42L: single amino acid mutant of SEQID-00338, position 42 (protein, listed as Saccharomyces cerevisiae)
chain: B4 chain with R42L, Y134R
modifications: source: /note="strain ATCC 204508 / S288c"
For B8, the “AVG percent activity relative to purified wild-type protein” value [2] was 1.7%.

B9: R42I: single amino acid mutant of SEQID-00338, position 42 (protein, listed as Saccharomyces cerevisiae)
chain: B4 chain with R42I, Y134R
modifications: source: /note="strain ATCC 204508 / S288c"
For B9, the “AVG percent activity relative to purified wild-type protein” value [2] was 1.5%.

B10: R42A: single amino acid mutant of SEQID-00338, substrate binding position 42 (protein, listed as Saccharomyces cerevisiae)
chain: B4 chain with R42A, Y134R
modifications: source: /note="strain ATCC 204508 / S288c"
With B10 the “AVG percent activity relative to purified wild-type protein” value [2] was 0.9%.

B11: D91F: single amino acid mutant of SEQID-00338, magnesium ion binding site position 91 (protein, listed as Saccharomyces cerevisiae)
chain: B4 chain with D91F, Y134R
modifications: source: /note="strain ATCC 204508 / S288c"
In the case of B11, the “AVG percent activity relative to purified wild-type protein” value [2] is reported as 0.9%.

B12: D91I: single amino acid mutant of SEQID-00338, position 91 (protein, listed as Saccharomyces cerevisiae)
chain: B4 chain with D91I, Y134R
modifications: source: /note="strain ATCC 204508 / S288c"
For B12, the “AVG percent activity relative to purified wild-type protein” value [2] was 0.4%.

B13: R42K: single amino acid mutant of SEQID-00338, position 42 (protein, listed as Saccharomyces cerevisiae)
chain: B4 chain with R42K, Y134R
modifications: source: /note="strain ATCC 204508 / S288c"
For B13, the “AVG percent activity relative to purified wild-type protein” value [2] was 2.2%.

B14: R42Q: single amino acid mutant of SEQID-00338, position 42 (protein, listed as Saccharomyces cerevisiae)
chain: B4 chain with R42Q, Y134R
modifications: source: /note="strain ATCC 204508 / S288c"
With B14 the “AVG percent activity relative to purified wild-type protein” value [2] was 1.2%.
